The values below come from the supplement of paper PMC5998384.

Data set [1] relates to HeLa Kyoto. Put plainly: solubility change mitosis vs G1/S (difference of NP-40 vs SDS log2 ratios) (log2 ratio difference); higher = more soluble in mitosis.
Data set [2] relates to HeLa Kyoto. Put plainly: solubility in G1/S (NP-40 vs SDS abundance) (log2 ratio); higher = more soluble. As to conditions: cell cycle stage: G1/S.
The subject of data set [3] is HeLa Kyoto. Put plainly: thermal stability score vs G1/S (z-score of summed log2 fold changes over temperatures); higher = more thermally stable than in G1/S.
Data set [4] relates to HeLa Kyoto. Put plainly: melting temperature (median over replicates), in situ; higher = more thermally stable.
The mark [5] stands for this setting: cell cycle stage: early G1 (4.5 h after nocodazole release).
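For melting temperature (median over replicates), in situ in this document: HeLa Kyoto cells synchronized by double thymidine or nocodazole block, proteins quantified by TMT10plex mass spectrometry, three independent biological replicates.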
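For solubility change mitosis vs G1/S (difference of NP-40 vs SDS log2 ratios) in this document: synchronized HeLa Kyoto cells (double thymidine block for G1/S, nocodazole release for mitosis), protein amounts in NP-40 versus SDS lysates quantified by mass spectrometry, three biological replicates.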
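For solubility in G1/S (NP-40 vs SDS abundance) in this document: HeLa Kyoto cells arrested at G1/S by double thymidine block, proteins quantified by TMT10plex mass spectrometry in mild NP-40 versus SDS extracts, three biological replicates.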
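For thermal stability score vs G1/S (z-score of summed log2 fold changes over temperatures) in this document: synchronized HeLa Kyoto cells, proteins quantified by TMT10plex mass spectrometry, three biological replicates, mitosis taken 0.5 h after nocodazole release, G1/S directly after double thymidine block.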

Sequence of PGRMC1 (chain, as listed by the source): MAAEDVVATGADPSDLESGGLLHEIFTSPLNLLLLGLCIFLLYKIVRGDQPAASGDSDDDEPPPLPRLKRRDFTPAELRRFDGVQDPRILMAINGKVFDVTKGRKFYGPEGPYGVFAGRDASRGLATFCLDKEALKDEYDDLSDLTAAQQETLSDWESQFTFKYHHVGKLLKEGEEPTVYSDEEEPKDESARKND

Take “MSDTAVADTRRLNSKPQDLTDAYGPPSNFLEIDIFNPQTVGVGRARFTTYEVRMRTNLPIFKLKESCVRRRYSDFEWLKNELERDSKIVVPPLPGKALKRQLPFRGDEGIFEESFIEERRQGLEQFINKIAGHPLAQNERCLHMFLQEEAIDRNYVPGKVRQ [SNX12]”: the “solubility change mitosis (log2)” value in data set [1] stood at 0.12. Further, the “solubility in G1/S (log2)” value in data set [2] is 0.348. Besides, the thermal stability score in data set [3] (setting [5]) was -0.501; in data set [3] (cell cycle stage: mitosis) it was -1.12. Further, the melting temperature turned out to be 49.2 °C in data set [4] (cell cycle stage: G1/S) and 50.7 °C in data set [4] (cell cycle stage: mitosis).

Turning to “MEAARTAVLRVKRKRSAEPAEALVLACKRLRSDAVESAAQKTSEGLERAAENNVFHLVATVCSQEEPVQPLLREVLRPSRDSQQRVRRNLRASAREVRQEGRYRVLSSRRSLGTTSSGQESEYTPGNPEAAGNSGFQLLDLVHEEGEPEAASAGSCKTSDPDVILCNSVELIRERLTVSEDGPGVRRQEEQKHDDYVYDIYYLETATPGWIENILSVQPYSQEWELVNDDQEPEDIYDDEDDENSENNWRNEYPEEESSDGDEDSRGSADYNSLSEEERGSSRQRMWSKYPLDVQKEFGYDSPHDLDSD [SLC7A6OS]”, the “solubility change mitosis (log2)” value in data set [1] was -0.117. The “solubility in G1/S (log2)” value in data set [2] was determined as 0.343. The figures for the thermal stability score in data set [3] (setting [5]) and in data set [3] (cell cycle stage: mitosis) were -0.0342 and 0.677, respectively. The values for the melting temperature in data set [4] (cell cycle stage: G1/S) and in data set [4] (cell cycle stage: mitosis) were 52.4 °C and 54 °C, respectively.

As to “MKRSGTLRLLSDLSAFGGAARLRELVAGDSAVRVRGSPDGRHLLLLRPPGAVAPQLLVASRGPGAELERAWPAGQPSPLDAFFLPWPARPALVLVWESGLAEVWGAGVGPGWRPLQSTELCPGGGARVVAVAALRGRLVWCEERQARAEGPSGSPAAAFSHCVCVRTLEPSGEASTSLGRTHVLLHHCPAFGLLASCRQLFLVPTATTWPGVAHVLLIWSPGKGKVMVAAPRLGLSYSKSLNPGRGDTWDFRTLLRGLPGLLSPREPLAVHTWAPTPQGLLLLDFGGTVSLLQSHGGTRAVGTLQEAPVGPWGSAALGTFQGTLACVLGSTLELLDMGSGQLLERKVLSTDRVHLLEPPAPGMEDEEELETRGNLRLLSALGLFCVGWEAPQGVELPSAKDLVFEEACGYYQRRSLRGAQLTPEELRHSSTFRAPQALASILQGHLPPSALLTMLRTELRDYRGLEQLKAQLVAGDDEEAGWTELAEQEVARLLRTELIGDQLAQLNTVFQALPTAAWGATLRALQLQLDGNGKLRSQAPPDVWKKVLGGITAGKEPPNGILPPFELLCQCLCQLEPRWLPPFVELAQQQGGPGWGAGGPGLPLYRRALAVLGEEGTRPEALELELLLSSGRPKAVLQAVGQLVQKEQWDRALDAGLALGPSSPLLRSEIFKLLLAEFAQHRRLDAHLPLLCRLCPPELAPAELLLLLRTYLPDEVGPPTPFPEPGAEPPLTVGLLKALLEQTGAQGWLSGPVLSPYEDILWDPSTPPPTPPRDL [HPS6]”, the “solubility change mitosis (log2)” value in data set [1] is -0.149. Besides, the “solubility in G1/S (log2)” value in data set [2] is 0.12. In addition, the thermal stability score turned out to be 0.139 in data set [3] (setting [5]) and 0.929 in data set [3] (cell cycle stage: mitosis). Moreover, the values for the melting temperature in data set [4] (cell cycle stage: G1/S) and in data set [4] (cell cycle stage: mitosis) were 49.3 °C and 49.1 °C, respectively.

For the substance “MQGPPRSLRAGLSLDDFIPGHLQSHIGSSSRGTRVPVIRNGGSNTLNFQFHDPAPRTVCNGGYTPRRDASQHPDPAWYQTWPGPGSKPSASTKIPASQHTQNWSATWTKDSKRRDKRWVKYEGIGPVDESGMPIAPRSSVDRPRDWYRRMFQQIHRKMPDLQLDWTFEEPPRDPRHLGAQQRPAHRPGPATSSSGRSWDHSEELPRSTFNYRPGAFSTVLQPSNQVLRRREKVDNVWTEESWNQFLQELETGQRPKKPLVDDPGEKPSQPIEVLLERELAELSAELDKDLRAIETRLPSPKSSPAPRRAPEQRPPAGPASAWSSSYPHAPYLGSARSLSPHKMADGGSPFLGRRDFVYPSSTRDPSASNGGGSPARREEKKRKAARLKFDFQAQSPKELTLQKGDIVYIHKEVDKNWLEGEHHGRLGIFPANYVEVLPADEIPKPIKPPTYQVLEYGEAVAQYTFKGDLEVELSFRKGEHICLIRKVNENWYEGRITGTGRQGIFPASYVQVSREPRLRLCDDGPQLPTSPRLTAAARSARHPSSPSALRSPADPIDLGGQTSPRRTGFSFPTQEPRPQTQNLGTPGPALSHSRGPSHPLDLGTSSPNTSQIHWTPYRAMYQYRPQNEDELELREGDRVDVMQQCDDGWFVGVSRRTQKFGTFPGNYVAPV [SORBS3]”, in data set [1], the “solubility change mitosis (log2)” value was -0.0255. Also, the “solubility in G1/S (log2)” value in data set [2] came to 0.169. The thermal stability score in data set [3] (setting [5]) was -0.822; in data set [3] (cell cycle stage: mitosis), 0.186. For the same substance, the melting temperature turned out to be 51.2 °C in data set [4] (cell cycle stage: G1/S) and 52 °C in data set [4] (cell cycle stage: mitosis).

With EIF4H, the “solubility change mitosis (log2)” value in data set [1] amounted to 0.16. The “solubility in G1/S (log2)” value in data set [2] is 0.374. Also, the thermal stability score in data set [3] (setting [5]) was -1.37; in data set [3] (cell cycle stage: mitosis) it was -1.91. Moreover, the melting temperature in data set [4] (cell cycle stage: G1/S) was determined as 51.3 °C; in data set [4] (cell cycle stage: mitosis), 51.9 °C.

Consider “MGGPRGAGWVAAGLLLGAGACYCIYRLTRGRRRGDRELGIRSSKSAGALEEGTSEGQLCGRSARPQTGGTWESQWSKTSQPEDLTDGSYDDVLNAEQLQKLLYLLESTEDPVIIERALITLGNNAAFSVNQAIIRELGGIPIVANKINHSNQSIKEKALNALNNLSVNVENQIKIKIYISQVCEDVFSGPLNSAVQLAGLTLLTNMTVTNDHQHMLHSYITDLFQVLLTGNGNTKVQVLKLLLNLSENPAMTEGLLRAQVDSSFLSLYDSHVAKEILLRVLTLFQNIKNCLKIEGHLAVQPTFTEGSLFFLLHGEECAQKIRALVDHHDAEVKEKVVTIIPKI [ARMC10]”, for which the “solubility change mitosis (log2)” value in data set [1] is -0.108. In data set [2], the “solubility in G1/S (log2)” value amounted to 0.226. In addition, the thermal stability score amounted to 0.978 in data set [3] (setting [5]) and 1.04 in data set [3] (cell cycle stage: mitosis). The results for the melting temperature in data set [4] (cell cycle stage: G1/S) and in data set [4] (cell cycle stage: mitosis) were 50.8 °C and 49.7 °C, respectively.

As to “MAAWGCVAALGAARGLCWRAARAAAGLQGRPARRCYAVGPAQSPPTFGFLLDIDGVLVRGHRVIPAALKAFRRLVNSQGQLRVPVVFVTNAGNILQHSKAQELSALLGCEVDADQVILSHSPMKLFSEYHEKRMLVSGQGPVMENAQGLGFRNVVTVDELRMAFPLLDMVDLERRLKTTPLPRNDFPRIEGVLLLGEPVRWETSLQLIMDVLLSNGSPGAGLATPPYPHLPVLASNMDLLWMAEAKMPRFGHGTFLLCLETIYQKVTGKELRYEGLMGKPSILTYQYAEDLIRRQAERRGWAAPIRKLYAVGDNPMSDVYGANLFHQYLQKATHDGAPELGAGGTRQQQPSASQSCISILVCTGVYNPRNPQSTEPVLGGGEPPFHGHRDLCFSPGLMEASHVVNDVNEAVQLVFRKEGWALE [CECR5]”, in data set [1], the “solubility change mitosis (log2)” value is -0.159. Moreover, the “solubility in G1/S (log2)” value in data set [2] was determined as 0.262. Moreover, the thermal stability score in data set [3] (setting [5]) is 0.291; in data set [3] (cell cycle stage: mitosis) it was 1.28. For the same substance, the melting temperature was determined as 50.8 °C in data set [4] (cell cycle stage: G1/S) and 50.2 °C in data set [4] (cell cycle stage: mitosis).

As for “MAAPRPPPARLSGVMVPAPIQDLEALRALTALFKEQRNRETAPRTIFQRVLDILKKSSHAVELACRDPSQVENLASSLQLITECFRCLRNACIECSVNQNSIRNLDTIGVAVDLILLFRELRVEQESLLTAFRCGLQFLGNIASRNEDSQSIVWVHAFPELFLSCLNHPDKKIVAYSSMILFTSLNHERMKELEENLNIAIDVIDAYQKHPESEWPFLIITDLFLKSPELVQAMFPKLNNQERVTLLDLMIAKITSDEPLTKDDIPVFLRHAELIASTFVDQCKTVLKLASEEPPDDEEALATIRLLDVLCEMTVNTELLGYLQVFPGLLERVIDLLRVIHVAGKETTNIFSNCGCVRAEGDISNVANGFKSHLIRLIGNLCYKNKDNQDKVNELDGIPLILDNCNISDSNPFLTQWVIYAIRNLTEDNSQNQDLIAKMEEQGLADASLLKKVGFEVEKKGEKLILKSTRDTPKP [ATXN10]”, the “solubility change mitosis (log2)” value in data set [1] was -0.135. The “solubility in G1/S (log2)” value in data set [2] is 0.202. Further, the figures for the thermal stability score in data set [3] (setting [5]) and in data set [3] (cell cycle stage: mitosis) were 0.984 and 1.43, respectively. Further, the melting temperature was 51.9 °C in data set [4] (cell cycle stage: G1/S) and 51.1 °C in data set [4] (cell cycle stage: mitosis).

Regarding PGRMC1, in data set [1], the “solubility change mitosis (log2)” value turned out to be 0.219. In addition, in data set [2], the “solubility in G1/S (log2)” value came out at 0.15. Besides, the figures for the thermal stability score in data set [3] (setting [5]) and in data set [3] (cell cycle stage: mitosis) were -0.433 and -0.0697, respectively. Besides, the melting temperature in data set [4] (cell cycle stage: G1/S) was determined as 53.1 °C; in data set [4] (cell cycle stage: mitosis), 52.8 °C.

Consider “MLCGRPRSSSDNRNFLRERAGLSSAAVQTRIGNSAASRRSPAARPPVPAPPALPRGRPGTEGSTSLSAPAVLVVAVAVVVVVVSAVAWAMANYIHVPPGSPEVPKLNVTVQDQEEHRCREGALSLLQHLRPHWDPQEVTLQLFTDGITNKLIGCYVGNTMEDVVLVRIYGNKTELLVDRDEEVKSFRVLQAHGCAPQLYCTFNNGLCYEFIQGEALDPKHVCNPAIFRLIARQLAKIHAIHAHNGWIPKSNLWLKMGKYFSLIPTGFADEDINKRFLSDIPSSQILQEEMTWMKEILSNLGSPVVLCHNDLLCKNIIYNEKQGDVQFIDYEYSGYNYLAYDIGNHFNEFAGVSDVDYSLYPDRELQSQWLRAYLEAYKEFKGFGTEVTEKEVEILFIQVNQFALASHFFWGLWALIQAKYSTIEFDFLGYAIVRFNQYFKMKPEVTALKVPE [ETNK1]”, for which the “solubility change mitosis (log2)” value in data set [1] was -0.288. The “solubility in G1/S (log2)” value in data set [2] is -0.0579. The thermal stability score is -1.17 in data set [3] (setting [5]) and -1.91 in data set [3] (cell cycle stage: mitosis). Moreover, the melting temperature in data set [4] (cell cycle stage: G1/S) stood at 53 °C; in data set [4] (cell cycle stage: mitosis) it was 51.9 °C.

For the substance “MAAAGAPDGMEEPGMDTEAETVATEAPARPVNCLEAEAAAGAAAEDSGAARGSLQPAPAQPPGDPAAQASVSNGEDAGGGAGRELVDLKIIWNKTKHDVKFPLDSTGSELKQKIHSITGLPPAMQKVMYKGLVPEDKTLREIKVTSGAKIMVVGSTINDVLAVNTPKDAAQQDAKAEENKKEPLCRQKQHRKVLDKGKPEDVMPSVKGAQERLPTVPLSGMYNKSGGKVRLTFKLEQDQLWIGTKERTEKLPMGSIKNVVSEPIEGHEDYHMMAFQLGPTEASYYWVYWVPTQYVDAIKDTVLGKWQYF [UBFD1]”, the “solubility change mitosis (log2)” value in data set [1] was found to be 0.0325. Besides, in data set [2], the “solubility in G1/S (log2)” value worked out at 0.522. The figures for the thermal stability score in data set [3] (setting [5]) and in data set [3] (cell cycle stage: mitosis) were -0.222 and -0.699, respectively. Moreover, the melting temperature in data set [4] (cell cycle stage: G1/S) was found to be 51.5 °C; in data set [4] (cell cycle stage: mitosis) it was 52.1 °C.
